Test results from the supplement of paper PMC12042874.
± gives the uncertainty stated by the source.

assay: amyloid nucleation score (Sup35N fusion, yeast selection) (log enrichment); library NNK2; higher = more nucleation; inactive = no reads after selection
In short: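 The nucleation score equals the log enrichment of output over input reads from DiMSum, centred on the mode score of non-aggregating sequences. It was computed only for sequences with 100 or more input reads. The reads came from Illumina sequencing of plasmid inserts from psi-negative yeast expressing Sup35N fused to peptides of 20 random codons, induced with 100 μM copper sulfate for 24 hours and grown 7 days at 30°C without adenine and uracil.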

Substance	amyloid nucleation score
LHFGAGLTSSVCPSLYSQ	-0.931 ± 1.1
LHFTYCGSVMNVANDMVFVQ	0.106 ± 1
LHGQVYMIQG	2.17 ± 0.13
LHHFSVTYNSITFCLNFPFR	4.11 ± 0.065
LHQGSVCWDWLPVYEVTVLG	0.049 ± 0.44
LHQTV	0.79 ± 0.57
LHTTCLFSRWNVFL	2.3 ± 0.076
LIARSLGFKNVWS	-0.575 ± 0.54
LIFRSVSVSFIPLLMKDGNG	-0.042 ± 0.74
LIKLMGLV	0.466 ± 0.43
LILMAENL	-0.92 ± 1.1
LINWVVVLYG	1.9 ± 0.14
LIRGVII	0.21 ± 0.54
LISTELGPTSFYLHKSLSSR	-1.02 ± 0.62
LITIAIAARCSRMIGLQLFL	-0.495 ± 0.32
LIVKLANTGRSQHHIRSWLS	-0.212 ± 0.38
LIWGTPYKAW	0.859 ± 0.41
LIYIICVSLFSRVVMVIANF	-1.25 ± 0.78
LKARIACADYIRSGIILLCS	2.2 ± 0.08
LKCRVITQSCIPSSINRLDG	-0.02 ± 0.22
LKHKHRNMRITCSASI	-0.269 ± 0.25
LKIFLLIVVGDDFMKSKYCP	-0.612 ± 0.64
LKKFVPPELRSADVDRKCSK	inactive
LKMIWIYSFCLILVLYLRQA	0.148 ± 1
LKRYKVRQFSTCLWAGAYSQ	0.407 ± 0.23

Substance	amyloid nucleation score
LKSSNRGNVRKRLLGEDEGT	0.245 ± 0.37
LKWDFRIYTTSWAAKKQGME	0.095 ± 0.37
LLACLKGTSGAGRIYAYLMT	-0.096 ± 0.3
LLAFFMWSLRQRDSGTLLLD	-0.63 ± 0.52
LLAFHCGHQMCFGVINMSTG	3.83 ± 0.065
LLALTFSTETQGRHTKCHSL	4.07 ± 0.094
LLAVFTSCYCQECYVEPALV	5.55 ± 0.07
LLCCIIIIGMVLGLMTDPEW	-0.781 ± 0.76
LLCMVIMVGFYSRSAGNTDQ	0.696 ± 0.6
LLCVGHFFLQ	inactive
LLDWTLLSNST	inactive
LLETMAK	inactive
LLFPCFVTRSLVS	-0.871 ± 0.32
LLFPLGISHAYMGRFFFRMV	-0.266 ± 1.1
LLHAVQDHVGLPTVYRRCSR	2.79 ± 0.11
LLLCYYVFASHKFCCGDGVL	-0.302 ± 0.76
LLLRGQLQVMPGDPARRMYV	0.556 ± 0.29
LLMFRVRVDELWHGAARHMG	1.64 ± 0.38
LLMQVIRPVNLLFRWRELWA	0.213 ± 0.34
LLMVRVGRSQVRSNKNRH	5.984 ± 0.054
LLPATWYLVLF	-0.204 ± 0.49
LLPIGEVKE	-1.17 ± 0.44
LLPYSSHN	4.901 ± 0.039
LLTMVHTSSIRKESGF	-0.118 ± 0.5
LLTTEQ	1.29 ± 0.43

Substance	amyloid nucleation score
LLVAEVV	0.538 ± 0.49
LLYRYYSF	3.72 ± 0.056
LLYTDYMMIYCIAFMLSDDY	-0.916 ± 1.1
LMDQSTFNRVKYVGHWVVSG	1.74 ± 0.087
LMFTCVMSFWRLSVRVILNY	0.277 ± 0.41
LMSNINVSIYIFG	7.782 ± 0.063
LMSQGCRGRLLL	-0.356 ± 0.64
LMVESNWHALHLVYVFSYI	0 ± 0.56
LMVKSDTCLLSLLSPTPFRR	3.67 ± 0.1
LMYGKEWSMEQIVGTSTFGY	-1.36 ± 0.48
LNCENELDFKLLSQSNTTMC	0.199 ± 0.62
LNEIERSSD	0.755 ± 0.3
LNIAMVASNGRSVAVRSSGG	0.113 ± 0.5
LNLFFLCGYPYYRNVGCMGH	7.195 ± 0.067
LNLNR	inactive
LNMPLLYDYPCYNSWDRYYS	-1.5 ± 0.53
LNPIFVWFHSC	7.23 ± 0.077
LNRLCRRVCRSINDTIAIRE	-0.157 ± 0.26
LNRTRYIAISKVLNRFSVSR	-0.237 ± 0.64
LNSQSLVAYMRAFVKDSPCR	0.007 ± 1.1
LNSYPASV	inactive
LNTLDNN	-0.047 ± 0.16
LNTYMAYSGWIVTN	-0.148 ± 0.33
LNVDP	inactive
LNYYWRFMPGGIGITGSSLS	1.72 ± 0.12

Substance	amyloid nucleation score
LPCFYEVCQTSHYRFYFIGK	1.96 ± 0.071
LPCRFKKYALHNQSTTGFWI	-0.187 ± 0.65
LPHCL	1.36 ± 0.24
LPKGNYSLLAERRSYFGAPI	inactive
LQCAFFDSSNMWI	-0.604 ± 0.76
LQCLSRASGHCPGRSTFWHF	1.02 ± 0.27
LQGRYNSTYYMDVAGLVVSE	-1.23 ± 0.76
LQLCCAMVS	0.883 ± 0.44
LQRVF	1.19 ± 0.47
LQSCAGTFTCDCVVGRNYGR	0.31 ± 0.23
LQSRWCRVKETWQS	1.66 ± 0.32
LQVMMYFWDEFVTKLEKVSG	-0.809 ± 1.1
LQYFLGAFAILFMCLLWVLQ	0.381 ± 0.64
LRDCLIRNPLKLRTKLTGHV	0.608 ± 0.3
LRFASSNKLVGLD	inactive
LRFVVMVHLE	-0.072 ± 0.79
LRHCVYVYSATSRWIC	0.674 ± 0.43
LRIICMSTMWRKCFRGIATA	-0.195 ± 0.39
LRIQCMMTLVWYSTPQSCNT	5.56 ± 0.066
LRLSHMFLVNMSWGNVINLC	3.28 ± 0.091
LRNHSHA	0.685 ± 0.41
LRSGLSLGSNLPKGGNIRSL	-0.531 ± 1.1
LRSLIYRCVLQWNTAKFLRS	-0.716 ± 1.1
LRSRVSSSLSYKLLFRTNVL	-0.175 ± 0.49
LRSYLNSHLLLEY	-1.44 ± 0.62

Substance	amyloid nucleation score
LRTIHYPC	inactive
LRTYYPRNVGA	-0.117 ± 0.5
LRWQKNLNSL	-0.778 ± 0.64
LRYPKRGFPNHVLSIESKLD	-0.479 ± 1
LRYSTSHSKNRRSDALNIKG	-0.739 ± 0.45
LRYVEGHGKDITSGGSLEEH	1.41 ± 0.14
LSAVVTSFKVTN	0.523 ± 0.64
LSFVVL	-0.67 ± 1.1
LSGLIGG	-0.135 ± 0.55
LSHMPDMALAKPWHRARD	5.04 ± 0.076
LSHRSQYGADVIRSR	-0.316 ± 0.61
LSKMWPPIHTTLIPLTDAER	4.84 ± 0.06
LSLFISGDYWVIQGNIY	3.65 ± 0.059
LSLNFLPYWLPQARCL	5.06 ± 0.099
LSLTNIYGKSIRDERIKTSC	-0.129 ± 0.65
LSLVEIFLGMRSLEVFCWVE	-0.709 ± 0.28
LSLVYRIGLNCNRELSSFDW	2.33 ± 0.1
LSLYWVMSLKSQAP	0.354 ± 0.64
LSMSWC	1.1 ± 0.44
LSMVYYATFDGF	-1.01 ± 1.1
LSMYDLYSMAR	inactive
LSPIVVPLYKQLDIFGVRRN	inactive
LSREFLNASL	-0.947 ± 0.49
LSRFNFSNVLLRRNMSARA	-1.78 ± 0.62
LSRSGNAPDMKKLLNFGQTR	3.71 ± 0.042

Substance	amyloid nucleation score
LSRSMK	-0.326 ± 0.29
LSSEVISSSHALQKTSICRF	2.72 ± 0.13
LSSGEYVSSGMRGTSCEKSK	-0.007 ± 0.79
LSSIWVSSYHLSWLKSW	-0.048 ± 0.42
LSTSWQRLVTILPLEWYHS	0.052 ± 0.26
LSYSVNWWPRSGWSYYVNEF	-0.176 ± 1.1
LSYVDWKCAVFDICW	3.53 ± 0.043
LTACRVLRLLKCSQRE	4.68 ± 0.075
LTCRTFYNNCVNEWSLHLSL	4.07 ± 0.072
LTGMVTCATI	0.53 ± 0.36
LTHEKLKGLYCTA	-0.404 ± 0.32
LTHSRNLRKVRTNRNNETHV	0.005 ± 1
LTLLYIWSKDAVRYLLGNMD	-1.09 ± 1.1
LTRVNWCLPKAGSLKQF	-0.06 ± 0.79
LTSGVHCHKRTVHD	-0.263 ± 1.1
LTSISYIIGDRWSIEVGRVF	-0.337 ± 1.1
LTSSSSSQVWGLYVYDGHLK	-0.045 ± 0.38
LTTKKLRSWV	-0.895 ± 1.1
LTTPLSRQVCMRFRAFNPEA	-0.655 ± 0.41
LTVLCPANLSYRIVYVLLYK	-0.865 ± 0.41
LTWRYLLYPLDKFGLETWVL	0.375 ± 0.46
LTYIRMQVHLVDYDRDALG	-1.32 ± 0.49
LTYYLRSFVIPSWG	inactive
LVALK	1.08 ± 0.51
LVAVVQGFRCVCLDSKLTGV	inactive

Substance	amyloid nucleation score
LVCGLDGLVCS	0.111 ± 0.56
LVDKVYNDAILLVWDNESRT	-0.464 ± 0.64
LVESGQGDQSAPNRTDWFNG	-0.437 ± 0.49
LVESVTEEQE	0.837 ± 0.47
LVEVIGFVRVSEPISTHA	0.884 ± 0.33
LVFLIETRNFFRLHLSGCWA	-1.27 ± 0.75
LVGYLSSVELDYRWENC	-0.026 ± 0.32
LVHFNFMCVVARMFDMFF	inactive
LVMRMFRERYNLCVSYWLN	inactive
LVNKG	3.15 ± 0.064
LVPSY	0.457 ± 0.18
LVRSVFIRYCISIPCRTRVL	0.034 ± 1.1
LVSESTLINSFLQIWFWSTL	-0.324 ± 1.1
LVSRCDDACGIQTGNMV	0.043 ± 0.33
LVSTEIN	3.75 ± 0.052
LVTRTVWGLK	0.223 ± 0.21
LVVCEMY	0.348 ± 0.25
LVVCKHVV	-0.323 ± 0.56
LVWCAISSNNKGLINVLADS	-1.47 ± 0.5
LVWWLSNRV	2.41 ± 0.088
LVYWRQYYCKGRVRLLC	inactive
LWAPAYCLIKC	0.851 ± 0.57
LWGLYNREFNAWRGHFVQDG	inactive
LWGYCTMLSEGH	-0.018 ± 0.2
LWHHIHSDLMTIYFVLDSSG	inactive
